Assay [1] deals with protein A (UniProt P38507). In words: phage ELISA on coated protein A; heat/cool assay, % of untreated sample (n = 2). On the technique in general: An ELISA detects its analyte on a solid surface through an enzyme-linked reagent.
Assay [2] deals with protein A (UniProt P38507). In words: phage ELISA on coated protein A; heat/cool assay, % of untreated sample.

For the substance DP47 VH S35D + SYA_31-33_DDD, the Retained binding to protein A (%) in the assay with protein A [1] was determined as 76.7%.
In the assay with protein A [2], DP47 VH S35D + YA_32/33_DD came in with a Retained binding to protein A (%) of 70.4%.
In the case of DP47 VH T28D + SYA_31-33_DDD, the Retained binding to protein A (%) with protein A [1] was found to be 74.9%.
In the assay with protein A [1], DP47 VH T28D + SYA_31-33_DDD + S35D gave a Retained binding to protein A (%) of 78.6%.
Still for that read-out and setting: for DP47 VH T28D + YA_32/33_DD the value was 76.1%.

Values taken from patent publication US20120207673A1.
